The subject of this data set is MS2 coat protein. As to the kind of experiment: apparent KD of MS2 coat protein; higher = weaker reporter binding. To be noted: Eterna round: R107. The method, boiled down:
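Designed RNA switches were transcribed on-chip from Illumina sequencing clusters. They were then titrated with SNAP-549-labelled MS2 coat protein (twofold steps, 0.7 or 1.5 nM to 3 µM; 0.8–1.5 h to 10–20 min per step) in 100 mM Tris-HCl pH 7.5, 80 mM KCl, 4 mM MgCl2, without or with constant ligand. Apparent KD is the per-design median of normalised cluster binding-curve fits.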

Where [1] appears, read: input ligand: theophylline 20 uM.
Setting [2] is: input ligand: theophylline 2 mM.
Setting [3] is: input ligand: tryptophan 2.4 mM.

The text below walks through data of the supplement of paper PMC9170038.

On to “GGGUACAUCGCGGCCGCCACUCAUGUAAAUUCAUGAGGAUCACCCAUGACGAUGGAGACAUCGGAGAGGACCGGGUGAUGUACCG”, for which the “apparent KD of MS2 coat protein” value runs as follows: (input ligand: arginine 13.2 mM) 26.5 nM; (input ligand: none) 16.8 nM; under setting [1], 23 nM; under setting [2], 20.8 nM; under setting [3], 16.8 nM.

In the case of “GGGUACAUCGCGGCCGCCACUGAUGUAAAUACAUGAGGAUCACCCAUGUCGAUGGAGACAUCGGCCAGGACCGGGUGAUGUACCG”, the “apparent KD of MS2 coat protein” value runs as follows: (input ligand: arginine 13.2 mM) 13.1 nM; (input ligand: none) 14 nM; under setting [1], 24.1 nM; under setting [2], 16.5 nM; under setting [3], 11.6 nM.

Regarding “GGGUACAUCGCGGCCGCCACUUAUGUAAAUACAUGAGGAUCACCCAUGUCGAUGGAGACAUCGGAGAGGACCGGGUGAUGUACCG”, the “apparent KD of MS2 coat protein” value turned out to be 28.2 nM (input ligand: arginine 13.2 mM), 41.6 nM under setting [1] and 48 nM under setting [2].

As to “GGGUGGUAGGCGGCCGCCACUGAUUUUUAUAUAUAUAUGACAUGAGGAUCACCCAUGUAGAUAUGCAGGACCGGGCCUGUUGUUU [aaaN]”, the “apparent KD of MS2 coat protein” value is 22.4 nM (input ligand: arginine 13.2 mM); 22.2 nM (input ligand: none); 28.2 nM under setting [1]; 22 nM under setting [2]; 28.3 nM under setting [3].

As to “GGUCGCCAACAUGGGUGGGCGACCCUGGAAGGAGCGAGCGAGAGCUCAGGUAGGUCGCCAGAACAUGAGGAUCACCCAUGUAAUA [(A)''-(M)'-(A)'(Arg1)-(Arg2)-(M1)-(M2)_Design13]”, the “apparent KD of MS2 coat protein” value reads like this: (input ligand: arginine 13.2 mM) 70.8 nM; (input ligand: none) 44.5 nM; under setting [1], 162 nM; under setting [2], 70.3 nM; under setting [3], 59.6 nM.

For the sequence “GGUCGCCAACAUGGGUGGGUGACCCUGGAAGGAGCGAGCGAGAGCUCAGGUAGGUCGCCAGAACAUGAGGAUCACCCAUGUAAUA [(A)''-(M)'-(A)'(Arg1)-(Arg2)-(M1)-(M2)_Design14]”, the “apparent KD of MS2 coat protein” value (input ligand: arginine 13.2 mM) worked out at 38.3 nM; the “apparent KD of MS2 coat protein” value (input ligand: none) was 63.5 nM; the “apparent KD of MS2 coat protein” value under setting [1] is 90 nM; the “apparent KD of MS2 coat protein” value under setting [2] is 139 nM; the “apparent KD of MS2 coat protein” value under setting [3] worked out at 65.8 nM.

“GGUGGCGUGACGGAUACCAGCCACCGCCGCAAGGCAACAUGAGGAUCACCCAUGUUGGGUGGCCCUUGGCAGCUGUCGUGCGGCG [#1 Same State - Theophylline B Attempt #22 (HarryS)]”: the “apparent KD of MS2 coat protein” value reads like this: (input ligand: arginine 13.2 mM) 13.3 nM; (input ligand: none) 195 nM; under setting [1], 151 nM; under setting [2], 159 nM; under setting [3], 50.2 nM.

On to “GGUGGCUGGACUGAUACCAGCCACCACCGAUAGACCACAUGAGGAUCACCCAUGUUGGGUGGCCCUUGGCAGCAGUCCAGCUGCC [#1 Same State - Theophylline B Attempt #10 (HarryS)]”, for which the “apparent KD of MS2 coat protein” value (input ligand: arginine 13.2 mM) came out at 152 nM; the “apparent KD of MS2 coat protein” value (input ligand: none) was found to be 607 nM; the “apparent KD of MS2 coat protein” value under setting [1] was found to be 374 nM; the “apparent KD of MS2 coat protein” value under setting [2] amounted to 2990 nM; the “apparent KD of MS2 coat protein” value under setting [3] was 873 nM.

In the case of “GGUUACUCUACGGCCGCCACUGAUAAAUAAUAAACCUGUACAUAAACAUGAGGAUCACCCAUGUACAGGACCGGGUAGUGUAACC [Tryptophan B 7]”, the “apparent KD of MS2 coat protein” value is, setting by setting: (input ligand: arginine 13.2 mM) 30.5 nM; under setting [1], 41.2 nM; under setting [2], 34.7 nM.

For the sequence “GGUUACUCUACGGCCGCCACUGAUUAUUUAUAGUCCUGUACAUAAACAUGAGGAUCACCCAUGUACAGGACCGGGUAGUGUAACC [Tryptophan B 12]”, the “apparent KD of MS2 coat protein” value reads like this: (input ligand: arginine 13.2 mM) 28.5 nM; under setting [1], 53.9 nM; under setting [2], 40.6 nM.

As for “GGUUACUCUACGGCCGCCACUGGGCAUGUAAAUAACAUGAGGAUCACCCAUGUGGAUUAAUAUUACAGGACCGGGUAGUGUAACC [Tryptophan B 23]”, the “apparent KD of MS2 coat protein” value reads like this: (input ligand: arginine 13.2 mM) 126 nM; (input ligand: none) 279 nM; under setting [1], 253 nM; under setting [2], 384 nM; under setting [3], 25.1 nM.

As to “GGUUACUCUACGGCCGCCACUGUAAAGUAAAUAUUAAUGUACAUGACAUGAGGAUCACCCAUGUACAGGACCGGGUAGUGUAACC [Tryptophan B 14]”, the “apparent KD of MS2 coat protein” value (input ligand: arginine 13.2 mM) turned out to be 45.5 nM, the “apparent KD of MS2 coat protein” value under setting [1] is 56.5 nM and the “apparent KD of MS2 coat protein” value under setting [2] amounted to 46.5 nM.

For “GUAGCGACGACGGCCGCCACUCACAGGUGAGGGUAGACCAACCUUCACAUGAGGAUCACCCAUGUGAGGACCGGGUUGUCGGUAC [#11 Exclusion Tryptophan B]”, the “apparent KD of MS2 coat protein” value turned out to be 50.9 nM (input ligand: arginine 13.2 mM); 134 nM (input ligand: none); 95.5 nM under setting [1]; 111 nM under setting [2]; 146 nM under setting [3].

Take “GUAGCGACGGCGGCCGCCACUCACAGGUGAGGGUAGACCAACCUUCACAUGAGGAUCACCCAUGUGAGGACCGGGCUGUCGCUAC [#13 Exclusion Tryptophan B]”: the “apparent KD of MS2 coat protein” value was 36.3 nM (input ligand: arginine 13.2 mM), 117 nM under setting [1] and 122 nM under setting [2].

Turning to “GUAUACAUGAGGAUCACCCAUGUGCCAGAAGGAGCGCUGGAAACGGCAGGUAGGUCGCUGGUAGGUCCUCUAUCUAGACGUUCGG [#17 Exclusion - Arginine A]”, the “apparent KD of MS2 coat protein” value by setting is: (input ligand: arginine 13.2 mM) 52.6 nM; (input ligand: none) 97.5 nM; under setting [1], 188 nM; under setting [2], 188 nM; under setting [3], 60.3 nM.

For the sequence “GUAUCGACAUGAGGAUCACCCAUGUCCGAAGGAGCGUUGGGAACAACAGGUAGGUCGCGGACAUAGAGCAUCCGGAAACGGAUGC [EAA NP+V+V2 #1]”, the “apparent KD of MS2 coat protein” value (input ligand: arginine 13.2 mM) turned out to be 10.1 nM; the “apparent KD of MS2 coat protein” value (input ligand: none) is 14 nM; the “apparent KD of MS2 coat protein” value under setting [1] is 16.4 nM; the “apparent KD of MS2 coat protein” value under setting [2] amounted to 34.3 nM; the “apparent KD of MS2 coat protein” value under setting [3] was 13.9 nM.

Regarding “GUAUCUAUGUGAAAUAGAUAUGUAACUGAAGGAGCGUCAUUAAGGACAGGUAGGUCGCGGAGCACAUGAGGAUCACCCAUGUCGG [#09 Same State - Arginine A]”, the “apparent KD of MS2 coat protein” value by setting is: (input ligand: arginine 13.2 mM) 24.7 nM; (input ligand: none) 42.1 nM; under setting [1], 31.1 nM; under setting [2], 35.5 nM; under setting [3], 34.3 nM.

Consider “GUAUUACGGACGGCCGCCACUGUGGGACAUGAGGAUCACCCAUGUGGCGCUACUUACAAGUGCGACAGGACCGGGUCAUGGUUUG [theeternabot_sameState_MS2_Trp_B_1]”, for which the “apparent KD of MS2 coat protein” value was found to be 152 nM (input ligand: arginine 13.2 mM), 732 nM under setting [1] and 783 nM under setting [2].

For the sequence “GUCCUAGCGAGCACUCGCUAGGACGCGGAUACCAGCGAGGUCCAUCGCCCUUGGCAGCCGAACAUGAGGAUCACCCAUGUCGGUA [#1 Same State - Theophylline A Attempt #17 (HarryS)]”, the “apparent KD of MS2 coat protein” value is, setting by setting: (input ligand: arginine 13.2 mM) 12.6 nM; (input ligand: none) 10 nM; under setting [1], 13.2 nM; under setting [2], 18 nM; under setting [3], 9.86 nM.
